Source: the DeepSol protein solubility set

Assay: soluble on expression in E. coli; label from the status in PepcDB or PDB records

Soluble on expression in E. coli, not soluble:
MGSDKIHHHHHHMAKNKTAYVCSECGQDFPRWQGQCNACGEWNTISEVRLAPAKSSAGSVAGYAGAVGGGSKKLSEVEEFEAKKLLTGIGELDRVLCGGLTTGSVNIISGDPGAGKTTILSDLVSRMSQLMPSLYCTAEESLSQFKNRVNRLRLDCNEENLYLMAETNVEAIIAELEAKQVKFAVIDSIQAVVTDLANGSPGSPSQVKGSAQALTQYCKQNNVTMFLVAHVNKNNETAGPQTLIHIVDCLTHLECNDGQVRTLRANKNRFGDVDTVGIFRMTERGMLSVDNPSEIFLSGSTTESPGAAITCIRKGNRNLLLEIQCLTTEAEGEFPQRVCVGLNMNRIKMLTGILRKHTRTKIYHDTYFNLVGGLKIDESETCIDLALVAALLSSLNEFVVPRTTCIMGELSLNGDVRPIDSGVPRVKEAVQHGFTEIFIPFRNYHKSMEGLGAKINPIKTIHELLELIC
MGSDKIHHHHHHMAKTIKLILSDIDGTILDNNHQVDAHLRDTITELKKESIPFVLASARSPHGMFPIAQELNLGANPIACYNGALIVEGNKEHYQTLIEHGLSKADVKKIVALIKKQFPHISINFYSGGDWIVEEIDQWVQIEADITKESPDIRNFDTLLTDDAIPIHKLLLIANAQAIQEFFTYLKRVNFEDASFYLSKDNYLEVTSQSVSKENALLEIAKYYDISLSQTMAIGDNYNDIPMLKLAGLGVAMANAPQAVKNEADIETVSNNDNGVSKVIEDYVLI
MGSDKIHHHHHHMAKTIRDESTASAYWAAVNTFCALKDVHVIADAPVGCYNLAGVAVMDYTDAIPYLENLTPTSLTEREISSSGSSQIVQETIEKLMGSGKQLILVSSAESEMIGSDHQHMLAMKYPSVRFFASDSLGENEWQGRDRALAWLFDQFDDGQPSQIEPGTVSIIGPTYGCFNSPADLAEVKRLVTGAGGRVAHVYPFESKAAEITKLKNSAAIVVMYREFGAALAEKLGRPVLYAPFGIEETDRFIGKIGRLCGTPEQATRFIAEEKRTTLSPVWDLWRGPQSEWFPTIRFGVVASKSYADGIKHVLGDELGMQCLFSLDSAEVDNNAVRKEIVQKQPQFLYGRMPDKIYLAEADAKSRFIPAGFPGPIVRRALGTPFMGHSGVVWLVQEIVNALYDTLFNFLPITRRQQAAAPTKPLKWTPEANAILDGIVRKAPFISQISFGRELKRKAENLAASRGADTVTPDILQQLG
MGSDKIHHHHHHMAKTPANKNDQTKDGRFEEALWDAANKLRGSVESSEYKHIVLSLIFLKFISDTFEQQRQKLIDTGYEKHIDMVQAYTKDNVFYLPAESRWSFIQQNAKQEDIALKIDTALSTIEKTNQSLKGALPDNYFSRLGLTASKLAALIDVVNNIDTIGNPEEDTVGRVYEYFLGKFAATEGKGGGEFYTPKSVVNLIAEMVEPYQGKIYDPCCGSGGMFVQSIKFIESHHGNTKDVSIYGQEYTSTTYKLAKMNLAIRGISSNLGDVAADTFFKDQHEDLKADFIMANPPFNQKDWRASDELVDDPRWAGYPTPPTGNANYAWILHMISKLSEHGTAGFVLANGSMSTTTSGEGEIRQQIIENDLVDCMIALPGQLFYTTQIPVCLWFINKDKQAKSADSKARGLRNRSGETLFIDARAIGSMISRTNKELTKDDIEAIAKTYHAWRGEKEAGGYEAYTDEAGYCKSATLDDMKANDYVLTPGRYVGAAAIEDDGISFETKMLELSQTLYAQMQASEKLDATIRQNLEVLGYGE
MGSDKIHHHHHHMAKVVISGYYGFDNLGDEAVLFSILKTLRELQIGIRIEVLSNNPSQTAEIYRVTAANRWKLGEVYHALKDSDMLISGGGSLLQDVTGWKSLVYYLGVIWLARFLGKPVFFYAQGIGPVNTPLGRLLMRWIVNKVNYITVRDESSRQDLAEMKISRPPVEVTADPVLGLEEKYVDKKIGQAILQEVGLDLSIERKMVGISVREWQGLGEYKEVVAELCDKLCRVGYQVVFLPMHSPDDLETSREVAAMMEQPAVVLEGHYSVVEMASLIANMDLLIGMRLHALILAAVMHVPPVAISYDPKIDRFMGLLGKTAATPVDRPQFAELWQAVEEIIYEPWQVREELMQQVEPLRQRAQASAVLGLKVLEKSLHNGPAAKYL
MGSDKIHHHHHHMALVKCQSLNEIPMTATNHMDTSVQHVDIAIVGGAMAGATLALALARLSLSAARPLSIALIEAHLPDKQHPGFDARSIAIAHGSIFELSRLGLWPKLAHLGTAIENIHVSDRGHFGMTELNAAQFHLDALGQVVELERVGQVLFNELNKSEVKLYCPAKLAQVEPAVEGHTLVLDTGKRLKAKLVVAADGLQSKVRSSFDLPVTQVAFEQTAIIANIQTDKPHQHLAYERFTQTGPLALLPMADSQGKPRLSLVWALDDARAKQMQTAPKAEFLAALQQAFGYRAGTFIDVSARHAYPLNLSYMPRPIHHRCVFIGNAAQTLHPIAGQGFNLGLRDVVSLLEVLKTALDQGDDIGSAAVTHAYLNAREHDRNSTIRNIEFLVRGFSNQYWPMALGRNLGLRLLSWFPPLKTPVAQKAMGWK
MGSDKIHHHHHHMAMTTEFANEITDVAKAIYEYAELGSSEYKSSSYLVEAFKRHGFQVDFPYLGMKTAFKARYFNGKPMVGLLAEYDALPNGHSCGHDLIAAWAFGTAIRLKDEFGISVTVFGTPSEEGIGEYAGSKAKFAQSGAFSDVDYVIGMHPDDRWAVGSTSLADLTIEAQFIGKSSHLLSPDYGINALDPLVESYVALSNFRRSVPNSKYPVIGMIVKEGGRASNVIPDKASMEIDIRAKKKADLAGFVDQIERILKMEGEMHYCKLNINEVTPIYDEYKSNRVIDSLLEEECQKHAVNPFNVDRSGEEPMGSTDEANVSQVIPTGHLDVKIVDPGIPAHTDEFRIAADPSRSGKTLLKAIDITVETIKTIWQDKKFMNKIKEEFKK
MGSDKIHHHHHHMANFAYEVFSTVVAQHTFYQAAATLNVTPSAVSHSINQLEKELGFPLFIRNRSGVELTSDGRQVLPYVQEILNTESNLRQVADNIQGLHSGSVRIGGFSSVCINWLPRIIREFNHKYPDIKISVMQGNFNEITNWAKIGTIDIGFTSMPVNENLLVHSLINDPIYCVTPADFIPENGEFITTDDVADKNFILQQSDYDRDTKLALDHYHVTNNFLRFSIDDQSIISMVESGLGMGILPQLALRKLTGDVNTFSFAEPYNREIALVANKTQAAAPSTAIMIRAIKQFLTKEYPDQMLWQ
MGSDKIHHHHHHMANSIPSGGNAFALPFAGSRHQFISATCTPDTFSDCLSQSLPPSSNEQAPLGVLRLVVAVSNQKQIGTVLEQLTKDFQALLSRAEVVVQPPFSGQVQISAWLVDTAAIADAPAVIGSPAALQWLFSASNAHALDDTQVSPAFSRQFYDGLESAHAQGHMPDDLLRTWIYIGGITQGPHDETRYQRVNAARQDAFREVSIGMGALCSPFPASTGIGTHGSSLTLGMLSCKIRSGMRVVALENRRQTSAFQYPKEESLIAPLFSRAVAILGDAQAMVFVSGTASIIGAKSVHVGNIEQQTRQTLENINNLLSARLLSDYDCYPATSGLESIVSYTVYIKRREDITVVRAVCAALLPERAVATFVQADVCRTELLVEIEAVAVMPE
MGSDKIHHHHHHMARLGVDFGTSNTAAGLVQAGHPRVLPLEPGAQTLPTAVFIDFAARRYVYGTDAARAMMDGQEGRFLRGLKSILGTPLAREPRMFLNERLTLIEVIARFLAEIRTRAERLSGERFDRALSGRPVHFHSASAERDAQACTDLHDAYLMAGFSEVCFLPEPEAAALAVAGQGRMLIVDIGGGTSDFTLCDRRGTTTRMLASRGLRIGGTDFDRVLSLDHAMPLLGYEAQIGAELGEASHSAPRALFHDLASWEKIAFVYDPATLREVRRWVRLAEQPRLFERLAEVLESHLGHDVAYAVEAGKIAANGAAAGRIALDIVERGLGADLGNAAMQAALAGFADEIATCAMQTVRDAGVGPDSVDQVVFVGGSSLMGVIRAALARVLPGAEQQDSEVFTAVVHGLALASEDQ
MGSDKIHHHHHHMASFPELPALRRLATLGRSWGLLSDFKYEQTRPDIFYGNLALDTSSLVAALSEDISGAGLNDLKVLDVGGGPGYFAEAFETLGATYFSVEPDVGEMSAAGIDVHGSVRGSGLDLPFLPDSFDVVYSSNVAEHVSAPWELGEEMLRVTRSGGLAILSYTIWLGPFGGHETGLWEHYVGGEFARDRYTKKHGHPPKNVFGESLFNVSCREGLEWGASVGNAELVAAFPRYHPYWVWWMVKVPVLREFAVSNLVLVFKKH
MGSDKIHHHHHHMATEAQVLEALQATMSAAYTRGLSAAKPQWNMIATEVPSAGAANFYGWLKDLPGIVEWTGARQLANLGKHGYSIENKTFESSISISRDNVDDDQIGQYSVIAQNYGDQVAYFPDTLAYPLLKAGFTTLCYDGQNFFDTDHPLATTPATTFSNVIGDPATDTGEPWFLIDDTKVLKPIVFQNRRPFVFKNMNPNEEYTWFNNKYAAGVDGRCNVGFSFPQLAIGSKAALTEANYAAAKKLLLKMKKVDGTPIGTRATKLVVGPDNEAAAKKLISRMLIEGGDTNIYYNDVEIVVSPLVTA
MGSDKIHHHHHHMATFTRKAIMQTFLHILKNKPLDRITVKDICEQCEINRNTFYYYFKDIYDVLEAIFEDEVRLVMDEAKEGVTFHDAYARVAALILNNREAIMHIYASENGRVLRTYLDAVVTQVVRRFVLEKAEGYSLDDSDIAFITAFYSNGIVGSTIKWIERGSMMSRLPENITANGVGLSKSQYNRDIVKRIGDSFDATIYDMIECCL
MGSDKIHHHHHHMATLSTVPRIHYLRVQNFRALRNIELKNITPLTVLLGPNGSGKTTLFDVFNFLSECFQGGLRQAWDKRGRAKELKTRGADGPVVIEIKYRESKATPLITYHLSIDEGPKGPVVAEEWLAWTRGTQGRPWRFLDYRLGKGVVVGGELPDEKDERLDVPLRSAELLAVNTLGQIAQHPRVAALRDFITDWYVSYLSVDNTRTQPEAGPMEQLSKTGDNLPNVIQYLQETHPEQLQSITEVLRRRIPRLERIDATPMPDGRLLLEVKDAPFDKPVLSKFASDGTLKMLAYLTVLYDPEPPRFIGIEEPENFLHPRLLPELGEECRHASERTQLLVTTHSPFFLNSCRPDEVRILFRDEQGHTQVRTAADIEGIPEFVAAGASLGHLWIEGQFGMSDPLRNQGAPWTIEGARRGH
MGSDKIHHHHHHMATPEFKYQKPFPMGDDTTEYYLLTKEYVSVDKFGDHDVLKVEPEALRLLARTAFHDIAFYLRPEHQQQVARILSDPEASENDKFVALTFLRNAEVSAKGQLPFCQDTGTAIILGKKGQQVWTGGHDEEQLSHGVYDTYTQENLRYSQNAPLDMYKEVNTGCNLPAQIDLMAVDGMEYDFLCIAKGGGSANKTYLYQETKALLNPKTLVNFLVDKMSSLGTAACPPYHIAFVIGGTSAETNLKTVKLASAKYYDNLPTSGNEGGRAFRDVELEKEVLEAAYHLGLGAQFGGKYFAHDVRIIRLPRHGASCPVGMGVSCSADRNIKAKINKDGIWIEKMETNPTRLIPESMREGTEGTVVKVDLNRPMPEILRELSQYPVSTRLSLSGTIIVGRDIAHAKLKERIDRGEGLPDYIKNHPIYYAGPAKTPKGMPSGSFGPTTAGRMDSYVDLFQSHGGSMVMIAKGNRSQQVTDACKKYGGFYLGSVGGPAAILAQDSIKKVECLEYPELGMEAIWKIEVEDFPAFILVDDKGNDFFTQIREKCKGCALH
MGSDKIHHHHHHMATTIKNRYEFVLFFDVENGNPNGDPDADNMPRIDPETSFGLVSDVCIKRKIRNYVALLKENEDDYQIYVQEKAVLNNQHKKAYEHFKIKPESKKLPKDTAQAEAITQFMCKNFYDIRTFGAVMTTEVNCGQVRGPVQLGFSRSLDPIVPQEITITRMAVTNERDLEKERTMGRKHIVNYALYRAEGFISAPLADKTGFSEEDLELLWDALINMFDHDRSAARGKMSSRKLYVFKHDSKLGNAPASILFDAITVKKINGNKPVRNFSDYEISVTGNEIPQGVEVLELL
